Kd data for one molecule are collected here from article PMC12170886, “CHD8 interacts with BCL11A to induce oncogenic transcription in triple negative breast cancer” (The EMBO Journal, 2025).

In the assay the target is T1, recombinant full-length human CHD8 (human, UniProt Q9HCK8 1-2581).
T1 construct: CHD8, human, full length; no cleavage of the tag is described; also called full-length CHD8; full-length Chd8; source: Expi293F, transiently transfected, purified (StrepTactin XT 4-Flow resin)
Put plainly: SPR; Biacore T200; CHD8 amine-coupled to a C1 chip (1585 RU), BSA-coupled reference cell; BCL11A injected 2.62-5737.5 nM (1:3 series), 600 s association, 300 s dissociation; 25 °C, HBS-P+ (10 mM HEPES, 150 mM NaCl, 0.05% Tween 20, pH 7.4); steady-state fit of responses at 600 s. Conditions: both partners purified. For orientation: Surface plasmon resonance follows binding to a sensor surface in real time, without labels.

T1 sequence (Q9HCK8 whole entry): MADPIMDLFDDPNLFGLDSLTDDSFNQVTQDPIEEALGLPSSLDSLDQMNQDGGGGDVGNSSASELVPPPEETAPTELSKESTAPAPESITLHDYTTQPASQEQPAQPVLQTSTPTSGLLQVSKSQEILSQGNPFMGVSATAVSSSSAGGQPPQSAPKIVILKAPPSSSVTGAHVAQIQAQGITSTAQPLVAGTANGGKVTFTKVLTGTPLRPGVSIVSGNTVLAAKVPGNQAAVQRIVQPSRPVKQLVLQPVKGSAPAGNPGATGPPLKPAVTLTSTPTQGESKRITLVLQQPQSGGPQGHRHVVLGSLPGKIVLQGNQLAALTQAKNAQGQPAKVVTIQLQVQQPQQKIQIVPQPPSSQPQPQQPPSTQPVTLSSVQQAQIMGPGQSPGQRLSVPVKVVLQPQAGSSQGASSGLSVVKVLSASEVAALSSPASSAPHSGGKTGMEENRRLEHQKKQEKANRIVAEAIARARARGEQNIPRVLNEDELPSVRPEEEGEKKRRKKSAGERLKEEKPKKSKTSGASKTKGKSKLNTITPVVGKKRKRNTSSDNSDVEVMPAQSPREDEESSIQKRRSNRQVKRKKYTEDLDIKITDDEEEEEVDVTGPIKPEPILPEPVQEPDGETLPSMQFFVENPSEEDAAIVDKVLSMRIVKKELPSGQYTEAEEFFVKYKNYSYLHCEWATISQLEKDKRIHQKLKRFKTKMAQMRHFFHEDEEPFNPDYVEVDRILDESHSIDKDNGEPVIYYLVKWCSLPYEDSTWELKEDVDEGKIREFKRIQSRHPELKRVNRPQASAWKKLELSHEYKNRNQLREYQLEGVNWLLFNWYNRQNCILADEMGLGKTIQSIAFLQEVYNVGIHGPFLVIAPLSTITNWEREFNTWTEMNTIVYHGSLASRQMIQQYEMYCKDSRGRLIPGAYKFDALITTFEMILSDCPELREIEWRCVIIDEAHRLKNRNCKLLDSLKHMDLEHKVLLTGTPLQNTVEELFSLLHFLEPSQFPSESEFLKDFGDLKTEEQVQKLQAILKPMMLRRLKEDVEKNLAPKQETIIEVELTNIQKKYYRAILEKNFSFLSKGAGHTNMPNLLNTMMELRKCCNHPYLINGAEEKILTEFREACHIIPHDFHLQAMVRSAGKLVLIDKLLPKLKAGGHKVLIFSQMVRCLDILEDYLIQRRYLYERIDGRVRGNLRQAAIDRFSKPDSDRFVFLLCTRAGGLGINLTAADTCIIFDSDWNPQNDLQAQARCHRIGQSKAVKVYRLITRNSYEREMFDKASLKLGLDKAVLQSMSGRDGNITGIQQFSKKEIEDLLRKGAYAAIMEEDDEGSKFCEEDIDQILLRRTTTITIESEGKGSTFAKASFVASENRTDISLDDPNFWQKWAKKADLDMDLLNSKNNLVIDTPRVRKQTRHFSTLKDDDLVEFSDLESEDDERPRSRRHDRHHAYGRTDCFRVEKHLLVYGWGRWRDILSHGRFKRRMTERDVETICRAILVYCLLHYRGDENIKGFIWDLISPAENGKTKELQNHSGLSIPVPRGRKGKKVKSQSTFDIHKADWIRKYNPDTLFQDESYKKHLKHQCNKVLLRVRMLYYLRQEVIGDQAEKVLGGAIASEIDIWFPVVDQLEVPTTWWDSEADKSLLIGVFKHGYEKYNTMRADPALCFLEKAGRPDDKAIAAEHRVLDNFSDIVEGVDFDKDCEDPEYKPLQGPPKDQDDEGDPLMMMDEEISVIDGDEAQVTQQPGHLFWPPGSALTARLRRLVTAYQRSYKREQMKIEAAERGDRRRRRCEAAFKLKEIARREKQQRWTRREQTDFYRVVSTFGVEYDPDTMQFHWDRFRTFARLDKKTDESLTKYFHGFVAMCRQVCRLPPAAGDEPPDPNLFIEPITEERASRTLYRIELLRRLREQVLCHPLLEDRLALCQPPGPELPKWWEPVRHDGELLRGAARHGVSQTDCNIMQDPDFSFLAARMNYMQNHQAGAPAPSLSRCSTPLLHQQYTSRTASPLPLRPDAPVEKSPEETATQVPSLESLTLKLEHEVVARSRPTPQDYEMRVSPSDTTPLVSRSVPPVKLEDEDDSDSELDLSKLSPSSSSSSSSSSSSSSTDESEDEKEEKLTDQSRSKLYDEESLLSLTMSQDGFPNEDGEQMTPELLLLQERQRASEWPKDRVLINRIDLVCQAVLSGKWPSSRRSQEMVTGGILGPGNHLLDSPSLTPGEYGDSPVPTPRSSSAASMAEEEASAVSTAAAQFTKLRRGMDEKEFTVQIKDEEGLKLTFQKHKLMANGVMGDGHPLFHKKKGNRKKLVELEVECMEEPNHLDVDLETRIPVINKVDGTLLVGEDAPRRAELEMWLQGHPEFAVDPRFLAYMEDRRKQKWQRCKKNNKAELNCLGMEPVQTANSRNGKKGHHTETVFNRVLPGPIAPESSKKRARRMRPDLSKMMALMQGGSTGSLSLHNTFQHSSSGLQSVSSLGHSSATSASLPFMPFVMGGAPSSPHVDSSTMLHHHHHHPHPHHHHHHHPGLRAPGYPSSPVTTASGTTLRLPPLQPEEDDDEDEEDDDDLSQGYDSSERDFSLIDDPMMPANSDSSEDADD

B1: recombinant full-length human BCL11A (natural protein, UniProt Q9H165 1-835, looked up)
chain: MSRRKQGKPQHLSKREFSPEPLEAILTDDEPDHGPLGAPEGDHDLLTCGQCQMNFPLGDILIFIEHKRKQCNGSLCLEKAVDKPPSPSPIEMKKASNPVEVGIQVTPEDDDCLSTSSRGICPKQEHIADKLLHWRGLSSPRSAHGALIPTPGMSAEYAPQGICKDEPSSYTCTTCKQPFTSAWFLLQHAQNTHGLRIYLESEHGSPLTPRVGIPSGLGAECPSQPPLHGIHIADNNPFNLLRIPGSVSREASGLAEGRFPPTPPLFSPPPRHHLDPHRIERLGAEEMALATHHPSAFDRVLRLNPMAMEPPAMDFSRRLRELAGNTSSPPLSPGRPSPMQRLLQPFQPGSKPPFLATPPLPPLQSAPPPSQPPVKSKSCEFCGKTFKFQSNLVVHRRSHTGEKPYKCNLCDHACTQASKLKRHMKTHMHKSSPMTVKSDDGLSTASSPEPGTSDLVGSASSALKSVVAKFKSENDPNLIPENGDEEEEEDDEEEEEEEEEEEEELTESERVDYGFGLSLEAARHHENSSRGAVVGVGDESRALPDVMQGMVLSSMQHFSEAFHQVLGEKHKRGHLAEAEGHRDTCDEDSVAGESDRIDDGTVNGRGCSPGESASGGLSKKLLLGSPSSLSPFSKRIKLEKEFDLPPAAMPNTENVYSQWLAGYAASRQLKDPFLSFGDSRQSPFASSSEHSSENGSLRFSTPPGELDGGISGRSGTGSGGSTPHISGPGPGRPSSKEGRRSDTCEYCGKVFKNCSNLTVHRRSHTGERPYKCELCNYACAQSSKLTRHMKTHGQVGKDVYKCEICKMPFSVYSTLEKHMKKWHSDRVLNNDIKTE
notes: BCL11A, human, full length; no cleavage of the tag is described; also called full-length BCL11A; source: Expi293F, transiently transfected, purified (StrepTactin XT 4-Flow resin)
B1: the Kd (commonly the concentration at which binding is half-saturated) turned out to be 870 nM.
